In this assay the target is recombinant heterodimer of human FCGRT/B2M (human neonatal IgG Fc receptor) (human) (UniProt P55899). Nature of the assay: electrochemical receptor sensor (amperometric I-T, time-current method); hFcγRn adsorbed in two layers on a gold nanoparticle-chitosan glassy carbon electrode with thionine and HRP as signal amplification, blocked with BSA; IgG in solution; constant voltage -0.38 V; data collected after 20 s; 8 mmol/L H2O2 in the test substrate; ultrapure water as blank; change rate of response current against IgG concentration, Ka by the double reciprocal (Lineweaver-Burk) method.
UniProt P55899, sequence (P55899 24-297, chain 1 of 2): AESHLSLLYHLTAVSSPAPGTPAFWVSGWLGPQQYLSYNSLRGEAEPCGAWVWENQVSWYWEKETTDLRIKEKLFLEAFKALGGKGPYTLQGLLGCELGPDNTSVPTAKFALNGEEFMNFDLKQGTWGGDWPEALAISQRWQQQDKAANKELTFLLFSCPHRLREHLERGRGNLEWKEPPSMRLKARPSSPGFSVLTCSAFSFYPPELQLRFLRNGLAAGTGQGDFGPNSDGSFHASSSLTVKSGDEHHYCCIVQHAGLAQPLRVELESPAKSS
UniProt P55899, sequence (P61769 21-119, chain 2 of 2, further chain): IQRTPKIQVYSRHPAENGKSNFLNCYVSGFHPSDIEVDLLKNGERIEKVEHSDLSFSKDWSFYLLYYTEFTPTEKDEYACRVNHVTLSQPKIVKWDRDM
Take Bovine IgG (antibody): the Ka (interconnected allosteric constant) was 1.59e-22 mol/L.

With Donkey IgG (antibody), the Ka (interconnected allosteric constant) stood at 1.14e-21 mol/L.

Take Horse IgG (antibody): the Ka (interconnected allosteric constant) stood at 1.2e-22 mol/L.

In the case of Human IgG (antibody), the Ka (interconnected allosteric constant) came to 1.02e-23 mol/L.

In the case of Quail IgY (antibody), the Ka (interconnected allosteric constant) was 8.61e-20 mol/L.

For the substance Rabbit IgG (antibody), the Ka (interconnected allosteric constant) was determined as 2.29e-21 mol/L.

On to Sheep IgG (antibody), for which the Ka (interconnected allosteric constant) is 2.17e-21 mol/L.

Values taken from PMC7397135.
